Primed or numbered codes have the meaning given here. Where no end group is shown, it is not given here. [ ]: non-standard residue; d: D form. The star is where a group is joined. Hpra′ = its azide, alkyne or alkene has reacted where a group follows in round brackets; Man9 = Man9 glycan, attached by click reaction of Man9-azide with homopropargylglycine; maleimide‑biotin = maleimide-biotin reagent joined to deprotected Cys; For = O=C*
How the values were obtained:
[1] = molecular target: HIV broadly neutralizing monoclonal antibody 2G12; experiment: radiolabeled glycopeptide, 2G12 titration, protein G bead capture, scintillation counting
[2] = molecular target: HIV broadly neutralizing monoclonal antibody 2G12; experiment: BLI (BLItz), biotin-10F2 on streptavidin sensor, 2G12 in solution at 16 nM; global 1:1 fit
[3] = molecular target: HIV broadly neutralizing monoclonal antibody 2G12; experiment: BLI (BLItz), biotin-10F2 on streptavidin sensor, 2G12 in solution at 16 nM
[4] = molecular target: HIV broadly neutralizing monoclonal antibody 2G12; experiment: BLI (BLItz), biotin-10F2 on streptavidin sensor, 2G12 in solution at 0.5 nM
[5] = molecular target: HIV broadly neutralizing monoclonal antibody 2G12; experiment: BLI (BLItz), biotin-10F2 on streptavidin sensor, 2G12 in solution at 1 nM
[6] = molecular target: HIV broadly neutralizing monoclonal antibody 2G12; experiment: BLI (BLItz), biotin-10F2 on streptavidin sensor, 2G12 in solution at 32 nM
[7] = molecular target: HIV broadly neutralizing monoclonal antibody 2G12; experiment: BLI (BLItz), biotin-10F2 on streptavidin sensor, 2G12 in solution at 4 nM
[8] = molecular target: HIV broadly neutralizing monoclonal antibody 2G12; experiment: BLI (BLItz), biotin-10F2 on streptavidin sensor, 2G12 in solution at 8 nM; global 1:1 fit
[9] = molecular target: HIV broadly neutralizing monoclonal antibody 2G12; experiment: BLI (BLItz), biotin-10F2 on streptavidin sensor, 2G12 in solution at 0.5 nM; global 1:1 fit
[10] = molecular target: HIV broadly neutralizing monoclonal antibody 2G12; experiment: BLI (BLItz), biotin-10F2 on streptavidin sensor, 2G12 in solution at 2 nM; global 1:1 fit
[11] = molecular target: HIV broadly neutralizing monoclonal antibody 2G12; experiment: BLI (BLItz), biotin-10F2 on streptavidin sensor, 2G12 in solution at 2 nM
[12] = molecular target: HIV broadly neutralizing monoclonal antibody 2G12; experiment: BLI (BLItz), biotin-10F2 on streptavidin sensor, 2G12 in solution at 32 nM; global 1:1 fit
[13] = molecular target: HIV broadly neutralizing monoclonal antibody 2G12; experiment: BLI (BLItz), biotin-10F2 on streptavidin sensor, 2G12 in solution at 4 nM; global 1:1 fit
[14] = molecular target: HIV broadly neutralizing monoclonal antibody 2G12; experiment: BLI (BLItz), biotin-10F2 on streptavidin sensor, 2G12 in solution at 1 nM; global 1:1 fit
[15] = molecular target: HIV broadly neutralizing monoclonal antibody 2G12; experiment: BLI (BLItz), biotin-10F2 on streptavidin sensor, 2G12 in solution at 8 nM

B1: glycopeptide 10F12 (Fixed library, round 10) (peptide)
peptide: For-[Hpra′](Man9)CYVTVIPA[Hpra′](Man9)N[Hpra′](Man9)PEARLGIVCH[Hpra′](Man9)PGIRRGKALYGSGSLGHHHHHHRDYKDDDDK
modifications: not fully specified; cysteine pairing not given here
[1]
  Fmax: 90%
  Kd: 0.77 nM

## For-[Hpra′](Man9)HPYNTSRTSA[Hpra′](Man9)[Hpra′](Man9)AALK[Hpra′](Man9)QVTD[Hpra′](Man9)YALALFHRILGSGSGC(maleimide‑biotin)A [biotinylated synthetic 10F2 glycopeptide 3]
[2]
  Kd: 1.37 nM
  koff: 0.000151 s⁻¹
  kon: 111000 M⁻¹ s⁻¹
[3]
  Req: 1.41
[4]
  Req: 0.481
[5]
  Req: 0.682
[6]
  Req: 1.39
[7]
  Req: 1.26
[8]
  Kd: 1.37 nM
  koff: 0.000151 s⁻¹
  kon: 111000 M⁻¹ s⁻¹
[9]
  Kd: 1.37 nM
  koff: 0.000151 s⁻¹
  kon: 111000 M⁻¹ s⁻¹
[10]
  Kd: 1.37 nM
  koff: 0.000151 s⁻¹
  kon: 111000 M⁻¹ s⁻¹
[11]
  Req: 0.987
[12]
  Kd: 1.37 nM
  koff: 0.000151 s⁻¹
  kon: 111000 M⁻¹ s⁻¹
[13]
  Kd: 1.37 nM
  koff: 0.000151 s⁻¹
  kon: 111000 M⁻¹ s⁻¹
[14]
  Kd: 1.37 nM
  koff: 0.000151 s⁻¹
  kon: 111000 M⁻¹ s⁻¹
[15]
  Req: 1.37

B2: glycopeptide 10F5 (Fixed library, round 10) (peptide)
peptide: For-[Hpra′](Man9)SPHLPVLLCK[Hpra′](Man9)VLNDGRRIVQ[Hpra′](Man9)SCELP[Hpra′](Man9)VRRSGSGSLGHHHHHHRDYKDDDDK
modifications: not fully specified; cysteine pairing not given here
[1]
  Fmax: 93%
  Kd: 0.97 nM

Source: patent publication US20160304628A1
